System: enteric epithelial cells
Test: Growth factor modulation of organotypic culture in reduced or modified media (Example 2)
Assay type: cell-based, human
Conditions: growth factor added individually to base medium (MCDB 201/L15, transferrin, antibiotics)
Description: To determine the role of growth factors on proliferation of colonic epithelial cells, this growth medium was modified by changing combinations of growth factors and deleting serum. Keratinocyte growth factor (KGF, R&D Systems) at 20 ng/ml was also tested as part of 23 growth factor combinations. Total relative cell numbers of a specific type were counted as an average of all nuclei counts from a minimum of 3 randomly selected cross-sections of a reconstruct. Goblet cells were counted based on their typical morphology and positive Alcian staining in at least 3 randomly selected slides. Proliferation rates in % were established by counting the number of BrdU or Ki-67-positive nuclei per total epithelial cell nuclei of section. Apoptotic cells were counted in H&E-stained sections (Vagunda, V. et al. 2000 Anal. Quant. Cytol. Histol., 22:307–310). Apoptotic bodies and nuclei were determined according to the size and numbers of the fragments. Apoptosis was calculated as percentage of total nuclei per section (Kerr, J F. et al. 1972 Br. J. Cancer, 26:239–257) To define the role of critical growth factors supporting growth and differentiation of the enteric epithelial cells, an organotypic culture, such as that described in Example 1, was grown in medium in which the number of supplements was reduced. […]

B1: epidermal growth factor (protein, UniProt P01133 23-1207, looked up)
Pro-epidermal growth factor: PQHWSCPEGTLAGNGNSTCVGPAPFLIFSHGNSIFRIDTEGTNYEQLVVDAGVSVIMDFHYNEKRIYWVDLERQLLQRVFLNGSRQERVCNIEKNVSGMAINWINEEVIWSNQQEGIITVTDMKGNNSHILLSALKYPANVAVDPVERFIFWSSEVAGSLYRADLDGVGVKALLETSEKITAVSLDVLDKRLFWIQYNREGSNSLICSCDYDGGSVHISKHPTQHNLFAMSLFGDRIFYSTWKMKTIWIANKHTGKDMVRINLHSSFVPLGELKVVHPLAQPKAEDDTWEPEQKLCKLRKGNCSSTVCGQDLQSHLCMCAEGYALSRDRKYCEDVNECAFWNHGCTLGCKNTPGSYYCTCPVGFVLLPDGKRCHQLVSCPRNVSECSHDCVLTSEGPLCFCPEGSVLERDGKTCSGCSSPDNGGCSQLCVPLSPVSWECDCFPGYDLQLDEKSCAASGPQPFLLFANSQDIRHMHFDGTDYGTLLSQQMGMVYALDHDPVENKIYFAHTALKWIERANMDGSQRERLIEEGVDVPEGLAVDWIGRRFYWTDRGKSLIGRSDLNGKRSKIITKENISQPRGIAVHPMAKRLFWTDTGINPRIESSSLQGLGRLVIASSDLIWPSGITIDFLTDKLYWCDAKQSVIEMANLDGSKRRRLTQNDVGHPFAVAVFEDYVWFSDWAMPSVMRVNKRTGKDRVRLQGSMLKPSSLVVVHPLAKPGADPCLYQNGGCEHICKKRLGTAWCSCREGFMKASDGKTCLALDGHQLLAGGEVDLKNQVTPLDILSKTRVSEDNITESQHMLVAEIMVSDQDDCAPVGCSMYARCISEGEDATCQCLKGFAGDGKLCSDIDECEMGVPVCPPASSKCINTEGGYVCRCSEGYQGDGIHCLDIDECQLGEHSCGENASCTNTEGGYTCMCAGRLSEPGLICPDSTPPPHLREDDHHYSVRNSDSECPLSHDGYCLHDGVCMYIEALDKYACNCVVGYIGERCQYRDLKWWELRHAGHGQQQKVIVVAVCVVVLVMLLLLSLWGAHYYRTQKLLSKNPKNPYEESSRDVRSRRPADTEDGMSSCPQPWFVVIKEHQDLKNGGQPVAGEDGQAADGSMQPTSWRQEPQLCGMGTEQGCWIPVSSDKGSCPQVMERSFHMPSYGTQTLEGGVEKPHSLLSANPLWQQRALDPPHQMELTQ
modifications: Pro-epidermal growth factor
notes: human recombinant epidermal growth factor (Sigma)
Question: With B1 as the molecule, how does the epithelial cell proliferation read?
Answer: not supported

B2: Keratinocyte growth factor (protein, UniProt P21781 32-194, looked up)
Fibroblast growth factor 7: CNDMTPEQMATNVNCSSPERHTRSYDYMEGGDIRVRRLFCRTQWYLRIDKRGKVKGTQEMKNNYNIMEIRTVAVGIVAIKGVESEFYLAMNKEGKLYAKKECNEDCNFKELILENHYNTYASAKWTHNGGEMFVALNQKGIPVRGKKTKKEQKTAHFLPMAIT
notes: Keratinocyte growth factor (R&D Systems) at 20 ng/ml
Question: Which epithelial cell proliferation does the source give for B2 here?
Answer: not supported
